According to publication PMC8945915, “An Electrochemical Impedance Spectroscopy-Based Aptasensor for the Determination of SARS-CoV-2-RBD Using a Carbon Nanofiber–Gold Nanocomposite Modified Screen-Printed Electrode”:

Target: SARS-CoV-2 spike receptor-binding domain (SARS-CoV-2-RBD, ~35 kDa) (SARS-CoV-2, UniProt P0DTC2 319-541)
Test: electrochemical impedance spectroscopy (Langmuir isotherm)

B1: thiol-terminal SARS-CoV-2-RBD aptamer (ssDNA)
DNA: CAGCACCGACCTTGTGCTTTGGGAGTGCTGGTCCAAGGGCGTTAATGGACA
modifications: 5' SH-(CH2)6 thiol
For B1, the Kd was 0.42 nM.
